Target: wild-type GroEL chaperonin (GroEL14) (E. coli) (UniProt P0A6F5)
Experiment: SDS-PAGE band intensity + absorption spectrophotometry; purified GroEL14-EGFP population assembled in vivo by coexpression; Coomassie-stained bands of WT GroEL (~60 kDa) and GroEL-EGFP (~90 kDa); absorption at 280 and 489 nm
Conditions: scale: WT subunits per fusion GroEL-EGFP subunit

Sequence of wild-type GroEL chaperonin (GroEL14) (E. coli) (P0A6F5 whole entry): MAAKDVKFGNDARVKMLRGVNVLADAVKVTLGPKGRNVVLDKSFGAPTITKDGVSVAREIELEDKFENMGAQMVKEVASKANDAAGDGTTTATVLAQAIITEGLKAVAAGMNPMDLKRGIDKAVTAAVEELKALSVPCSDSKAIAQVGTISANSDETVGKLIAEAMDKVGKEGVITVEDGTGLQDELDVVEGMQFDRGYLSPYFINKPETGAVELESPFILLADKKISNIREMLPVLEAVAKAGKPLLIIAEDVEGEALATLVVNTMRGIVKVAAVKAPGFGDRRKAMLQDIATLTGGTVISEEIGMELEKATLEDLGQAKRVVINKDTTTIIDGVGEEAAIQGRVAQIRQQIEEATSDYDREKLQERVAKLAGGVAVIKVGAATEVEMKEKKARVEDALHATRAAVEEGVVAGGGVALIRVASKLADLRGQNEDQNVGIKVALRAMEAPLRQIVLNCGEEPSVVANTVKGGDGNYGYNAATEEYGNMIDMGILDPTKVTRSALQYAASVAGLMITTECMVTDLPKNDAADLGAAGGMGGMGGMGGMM

stoichiometry N: 12
Substance: GroEL-EGFP fusion subunit (from UniProt P0A6F5 1-548; P42212 2-238)

— paper PMC9965216
